Measured values from patent US20260265360A1 (NEURACLE SCIENCE, published 2026).
Ends that are not written are not given here.

How the values were obtained:
[1] = target: T1, FAM19A5 epitope fragment F2, BSA-conjugated (human, conjugated to BSA); experiment: ELISA, plate-coated BSA-conjugated FAM19A5 fragments F1-F6
T1 peptide: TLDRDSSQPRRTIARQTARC
Protocol: (§1) Binding of the different anti-FAM19A5 antibodies to the BSA-conjugated peptide fragments F1-F6 was determined by Western blot analysis or ELISA assay. For the Western blot analysis, BSA-conjugated FAM19A5 fragments F1-F6 were separated by SDS polyacrylamide gel electrophoresis and transferred to a nitrocellulose membrane by the standard procedure. The membrane was incubated with the anti-FAM19A5 antibody (e.g., 1-65, […], 1-65-scFv-rabbit Fc-SSS), and the antigen-antibody complexes were detected with the appropriate secondary antibody conjugated with horse-radish peroxidase (anti-rabbit IgG (Fc specific)-HRP, 1:4000 dilution). For the ELISA assay, the following protocol was used. FAM19A5 fragment F1-F6 (diluted to 1 μg/mL in 50 mM carbonate buffer (Biosesang) or to 20 μg/mL for high concentration analysis) were used to coat the wells of 96-well immuno plates (Thermo Scientific) (100 μL/well) overnight at 4° C. and then subsequently washed twice in 1×PBS. The plates were then blocked with the blocking buffer (100 μL/well) for 1 hour at room temperature. During the 1-hour incubation, the relavant anti-FAM19A5 antibodies were diluted to 1 μg/mL (or 20 μg/mL for high concentration analysis) in the diluent buffer. Once the plates were washed (2× using 1×PBS), the diluted anti-FAM19A5 antibodies were added to the appropriate wells, and the plates were incubated at room temperature for 1 hour. The plates were subsequently washed for a total of five times using the washing buffer. Next, the ODP substrate (prepared by dissolving one ODP tablet (O-phenylenediamine Dihydrochloride, Thermo) into 9 mL of sterilized deionized water and 1 mL of 10× stable Peroxide Stable buffer (Theromo)) was added to each of the wells, and the color change reaction was allowed to occur for 10 minutes. This reaction was stopped by adding 100 μL of 2N H2SO4 (Daejung) to the wells. The absorption value of each of the wells was detected at 492 nm using a 96-well microplate reader (Molecular Device).
(§2) As shown in FIGS. 19 and 20A, the anti-FAM19A5 antibody 1-65 bound strongly to fragment F5 as measured by both Western Blot and ELISA assay, respectively.

[2] = target: T2, FAM19A5 mutant M2 (human); experiment: ELISA on phage-expressed FAM19A5 mutants M1-M8
T2 chain: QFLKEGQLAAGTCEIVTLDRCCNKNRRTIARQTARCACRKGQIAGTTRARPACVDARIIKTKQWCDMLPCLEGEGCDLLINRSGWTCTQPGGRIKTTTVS

[3] = target: T3, FAM19A5 mutant M6 (human); experiment: ELISA on phage-expressed FAM19A5 mutants M1-M8
T3 chain: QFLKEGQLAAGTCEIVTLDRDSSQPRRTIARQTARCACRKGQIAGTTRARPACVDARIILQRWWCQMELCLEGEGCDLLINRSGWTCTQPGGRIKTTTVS

[4] = target: T4, FAM19A5 mutant M7 (human); experiment: ELISA on phage-expressed FAM19A5 mutants M1-M8
T4 chain: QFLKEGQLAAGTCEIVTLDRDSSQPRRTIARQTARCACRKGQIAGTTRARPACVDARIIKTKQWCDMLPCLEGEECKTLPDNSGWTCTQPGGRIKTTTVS

[5] = target: T5, FAM19A5 mutant M8 (human); experiment: ELISA on phage-expressed FAM19A5 mutants M1-M8
T5 chain: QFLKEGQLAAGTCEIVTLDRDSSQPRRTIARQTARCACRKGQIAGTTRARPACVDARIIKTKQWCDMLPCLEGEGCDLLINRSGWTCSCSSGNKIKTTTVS

[6] = target: T6, Mutant F5 peptide F5-5 (#5) (human); experiment: ELISA, plate-coated F5 mutant peptides
T6 construct: already contained in the entry; also called mutant peptide #5
T6 peptide: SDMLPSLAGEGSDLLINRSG

[7] = target: T7, Mutant F5 peptide F5-7 (#7) (human); experiment: ELISA, plate-coated F5 mutant peptides
T7 construct: already contained in the entry; also called mutant peptide #7
T7 peptide: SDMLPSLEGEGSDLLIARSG

[8] = target: T8, Mutant F5 peptide F5-8 (#8) (human); experiment: ELISA, plate-coated F5 mutant peptides
T8 construct: already contained in the entry; also called mutant peptide #8
T8 peptide: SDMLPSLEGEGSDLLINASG

[9] = target: T9, Mutant F5 peptide F5-6 (#6) (human); experiment: ELISA, plate-coated F5 mutant peptides
T9 construct: already contained in the entry; also called mutant peptide #6
T9 peptide: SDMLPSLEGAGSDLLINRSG

[10] = target: T10, Mutant F5 peptide F5-4 (#4) (human); experiment: ELISA, plate-coated F5 mutant peptides
T10 construct: already contained in the entry; also called mutant peptide #4
T10 peptide: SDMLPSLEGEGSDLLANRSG

[11] = target: T11, Mutant F5 peptide F5-2 (#2) (human); experiment: ELISA, plate-coated F5 mutant peptides
T11 construct: already contained in the entry; also called mutant peptide #2
T11 peptide: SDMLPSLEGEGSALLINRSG

[12] = target: T12, Mutant F5 peptide F5-3 (#3) (human); experiment: ELISA, plate-coated F5 mutant peptides
T12 construct: already contained in the entry; also called mutant peptide #3
T12 peptide: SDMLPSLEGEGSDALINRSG

[13] = target: T13, Mutant F5 peptide F5-1 (#1) (human); experiment: ELISA, plate-coated F5 mutant peptides
T13 construct: already contained in the entry; also called mutant peptide #1
T13 peptide: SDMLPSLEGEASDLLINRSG

[14] = target: T14, FAM19A5 epitope fragment F3, BSA-conjugated (human, conjugated to BSA); experiment: ELISA, plate-coated BSA-conjugated FAM19A5 fragments F1-F6
T14 peptide: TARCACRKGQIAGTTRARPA
Protocol: as §1, §2

[15] = target: T15, FAM19A5 epitope fragment F1, BSA-conjugated (human, also: conjugated to BSA); experiment: as above
T15 construct: which number belongs to which fragment is not spelled out
T15 peptide: QLAAGTCEIVTLDR
Protocol: as §1, §2

[16] = target: T16, FAM19A5 epitope fragment F6, BSA-conjugated (human, conjugated to BSA); experiment: as above
T16 peptide: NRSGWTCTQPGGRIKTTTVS
Protocol: as §1, §2

B1: Anti-FAM19A5 antibody 3-2 (antibody, V domains shown)
VH: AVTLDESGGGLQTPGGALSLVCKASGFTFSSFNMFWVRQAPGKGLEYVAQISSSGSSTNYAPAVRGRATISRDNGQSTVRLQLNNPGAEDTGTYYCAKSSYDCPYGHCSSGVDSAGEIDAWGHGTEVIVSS
VL: ALTQPSSVSANPGETVKITCSGGGSYAGSYYYGWYQQKAPGSAPVTLIYESNKRPSDIPSRFSGSTSGSTATLTITGVQADDEAIYYCGSWDSSNGGIFGAGTTLTVL
notes: also called h3-2; m3-2
B1: binds [1]; no binding [2].

B2: Anti-FAM19A5 antibody 1-65 (antibody, V domains shown)
VH: AVTLDESGGGLQTPGGALSLVCKASGFTFSSYQMGWVRQAPGKGLEWVGVINKSGSDTSYGSAVKGRATISRDNGQSTVRLQLNNLRAEDTGTYFCAKGSASYITAATIDAWGHGTEVIVSS
VL: ALTQPSSVSANPGETVKITCSGGGSSGYGYGWYQQKSPSSAPLTVIYWNDKRPSDIPSRFSGSKSGSTHTLTITGVQAEDEAVYFCGNDDYSSDSGYVGVFGAGTTLTVL
notes: also called monoclonal antibody clone 1-65
B2: no binding [3]; no binding [4]; no binding [5]. B2: binds [6]; binds [7]; no binding [8]. B2: binds [9]; no binding [10]; no binding [11]. B2: no binding [12]; binds [13].

B3: Anti-FAM19A5 antibody P2-C12 (antibody, V domains shown)
VH: QSLEESGGRLVTPGTPLTLTCTVSGFSLSTYAVTWVRQAPGKGLEWIGYINWRGGTSYANWAKGRFTISKTSSTTVDLKMTSPTTEDTATYFCARDASSGAAFGSYGMDPWGPGTLVTVSS
VL: ELDMTQTPSSVSAAVGGTVTIKCQASQSISSYLSWYQQKPGQPPKLLIYEASKLASGVPSRFSGSGYGTEFTLTISDLECADAATYYCQQGYSSTNVWNAFGGGTNVEIK
B3: no binding [14]; no binding [15]; no binding [1]. B3: no binding [16]; no binding [3]; binds [6]. B3: binds [7]; no binding [8]; no binding [9]. B3: binds [10]; binds [11]; binds [12]. B3: no binding [13].

B4: Anti-FAM19A5 antibody P2-A03 (antibody, V domains shown)
VH: QSVEESGGRLVTPGTPLTLTCTVSGFSLNNYDMSWVRQAPGKGLEYIGFMDTDGSAYYATWAKGRFTISRTSTTVDLKMTSPTTEDTATYFCARRGSSYYGGIDIWGPGTPVTVSL
VL: ELDLTQTPASVSEPVGGTVTIKCQASQSIGGNLAWYQQKPGQPPKLLIYRASTLASGVPSRFKGSGSGTDFTLTISDLECADAATYYCQSPAYDPAAYVGNAFGGGTELEIL
B4: no binding [5].

B5: Anti-FAM19A5 antibody 13F7 (antibody, V domains shown)
VH: QVQLQEWGAGLLKPSETLSLTCAINAESFNGYSWTWIRQTPGKGLEWIGEISHFGSANYNPSLKSRATISADKSKNQFSLKLTSVTAVDTAVYYCARALRGTYSRFYYGMDVWGQGTTVTVSS
VL: DIVMTQTPLSLPVAPGEPASISCRSSQSLLHSNGYNYLDWYVQKPGQPPQLLIYLGSNRASGVPDRFSGSGSGTDFTLKISRVEAEDVGVYYCMQARQTPLTFGGGTKVEIK
B5: binds [4]; no binding [5].

B6: Anti-FAM19A5 antibody 13B4 (antibody, V domains shown)
VH: QVQLQESGPGLVKPSGTLSLNCAVSGGSISSSNWWSWVRQPPGKGLEWIGEIYHGGTTNYNPSLKGRVTMSVDKTKNQFSLRLSSVTAVDTAVYYCARWQLVGGLDVWGQGTTVTVSS
VL: SYELTQPLSVSVSPGQTASITCSGDKLGNVYASWYQQKPGQSPTLVIYQDNKRPSGIPERFSGSNSGKTATLTISGTQALDEADYYCQAWDSSTAVFGGGTKLTVL
B6: no binding [3]; binds [4]; no binding [5].
